In experiment [1] the target is human C1q (Quidel, San Diego, Calif.) (human) (UniProt P02745). As to the kind of experiment: C1q binding ELISA, antibody coated on plate, 2 µg/ml C1q.
Experiment [2] shares this target. The experiment is described as above. The source holds these as a separate data set.
Experiment [3] concerns the target CD20 antigen on WIL2-S cells (UniProt P11836). Description: flow cytometry on WIL2-S cells expressing CD20. Background: Flow cytometry measures light scatter and fluorescence of single cells or particles in a stream.
In experiment [4] the target is human C1q (Quidel, San Diego, Calif.) (human) (UniProt P02745). Description: cell-based or functional assay.

Where two headings read alike, the source gives them in different places.

Sequence of CD20 antigen on WIL2-S cells (P11836 whole entry): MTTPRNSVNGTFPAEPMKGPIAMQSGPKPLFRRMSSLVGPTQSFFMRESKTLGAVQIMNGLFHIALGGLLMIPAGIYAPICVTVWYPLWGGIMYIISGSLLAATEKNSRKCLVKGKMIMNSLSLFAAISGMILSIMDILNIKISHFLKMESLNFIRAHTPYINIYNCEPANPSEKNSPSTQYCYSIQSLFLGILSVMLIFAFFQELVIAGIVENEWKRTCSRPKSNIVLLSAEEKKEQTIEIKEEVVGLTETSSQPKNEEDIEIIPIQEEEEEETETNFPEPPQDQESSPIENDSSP
Sequence of human C1q (Quidel, San Diego, Calif.) (human) (P02745 23-245 limits assumed, chain 1 of 3): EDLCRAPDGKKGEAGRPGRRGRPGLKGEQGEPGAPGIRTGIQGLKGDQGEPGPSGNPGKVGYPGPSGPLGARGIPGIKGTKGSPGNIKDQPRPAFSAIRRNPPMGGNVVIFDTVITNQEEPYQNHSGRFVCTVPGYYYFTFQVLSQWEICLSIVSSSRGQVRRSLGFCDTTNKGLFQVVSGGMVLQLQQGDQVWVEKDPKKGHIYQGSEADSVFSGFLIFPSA
Sequence of human C1q (Quidel, San Diego, Calif.) (human) (P02746 28-253 limits assumed, chain 2 of 3, further chain): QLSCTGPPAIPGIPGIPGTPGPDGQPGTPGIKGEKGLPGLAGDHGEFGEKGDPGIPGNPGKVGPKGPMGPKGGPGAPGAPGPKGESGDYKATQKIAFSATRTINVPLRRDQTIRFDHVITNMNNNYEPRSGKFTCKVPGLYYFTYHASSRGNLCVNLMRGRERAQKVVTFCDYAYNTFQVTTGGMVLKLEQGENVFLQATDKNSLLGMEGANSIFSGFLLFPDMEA
Sequence of human C1q (Quidel, San Diego, Calif.) (human) (P02747 29-245 limits assumed, chain 3 of 3, further chain): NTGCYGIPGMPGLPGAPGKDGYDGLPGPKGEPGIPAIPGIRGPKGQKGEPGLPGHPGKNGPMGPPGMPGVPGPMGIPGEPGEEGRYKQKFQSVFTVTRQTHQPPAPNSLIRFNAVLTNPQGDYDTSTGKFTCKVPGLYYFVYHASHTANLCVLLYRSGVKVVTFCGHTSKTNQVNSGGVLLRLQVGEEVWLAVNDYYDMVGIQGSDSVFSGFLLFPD

The term EC50 denotes the midpoint of the concentration-response curve. In experiment [1], C2B8 mutant E333Q (antibody) gave an EC50 of 1.52 µg/mL. For C2B8 mutant K334A (antibody), in experiment [1], the EC50 stood at 1.07 µg/mL and the percent increase in binding against wild type is greater than 30%. The substance “C2B8 mutant with A327 in the human IgG1 constant region changed to glycine (antibody)” came in with a percent increase in binding against wild type in experiment [1] of 50%. In experiment [1], C2B8 mutant E333V (antibody) displayed an EC50 of 1.18 µg/mL. C2B8 mutant K326W (antibody): in experiment [1], the EC50 was 0.47 µg/mL and the fold increase in binding against wild type turned out to be 5 fold. The substance further yielded a fold increase in binding against wild type in experiment [2] greater than 2 fold. Regarding C2B8 mutant K326M (antibody), the EC50 in experiment [1] is 0.67 µg/mL. The fold increase in binding against wild type in experiment [2] is greater than 2 fold.

In experiment [1], C2B8 mutant K326E (antibody) registered an EC50 of 1.08 µg/mL. In experiment [2], this substance came in with a fold increase in binding against wild type greater than 2 fold. For the substance C2B8 mutant E333D (antibody), the EC50 in experiment [1] turned out to be 1.22 µg/mL. In experiment [1], C2B8 mutant E318A (antibody) yielded a percent decrease in binding against wild type C2B8 of 30%. Besides, the EC50 as percentage of the wild type in experiment [3] is 89%. The CDC, percentage of the wild type in experiment [4] was found to be 108%. In experiment [1], C2B8 mutant E333A (antibody) gave an EC50 of 0.98 µg/mL and a percent increase in binding against wild type of 30%.

The substance C2B8 mutant P331A (antibody) registered a fold lower binding than wild type C2B8 in experiment [1] of 60 fold. For the same substance, in experiment [3], the EC50 as percentage of the wild type is 103%.

In experiment [1], C2B8 mutant K326A (antibody) yielded an EC50 of 1.03 µg/mL and a percent increase in binding against wild type of 30%. As for C2B8 mutant K326G (antibody), the half-maximal effective concentration (EC50) in experiment [1] was determined as 0.95 µg/mL.

In the case of C2B8 mutant E333S (antibody), in experiment [1], the EC50 came out at 0.81 µg/mL and the fold increase in binding against wild type turned out to be 2 fold. For the substance C2B8 mutant K320A (antibody), the EC50 as percentage of the wild type in experiment [3] is 102%. Moreover, the CDC, percentage of the wild type in experiment [4] was found to be 108%. In experiment [3], C2B8 mutant P329A (antibody) registered an EC50 as percentage of the wild type of 112%. For “C2B8 double mutant K326M-E333S (antibody)”, the fold better binding than wild type C2B8 in experiment [1] is greater than 3 fold. Further, the CDC, fold better than wild type C2B8 in experiment [4] was greater than 2 fold. In experiment [1], C2B8 mutant K326V (antibody) registered an EC50 of 1.3 µg/mL. On to “C2B8 double mutant K326A-E333A (antibody)”, for which the fold better binding than wild type C2B8 in experiment [1] is greater than 3 fold. In addition, in experiment [4], the CDC, fold better than wild type C2B8 is greater than 2 fold. Regarding C2B8 mutant E333G (antibody), in experiment [1], the concentration for a half-maximal effect (EC50) worked out at 1.14 µg/mL.

The substance C2B8 mutant K326D (antibody) had an EC50 in experiment [1] of 0.76 µg/mL. The substance further yielded a fold increase in binding against wild type in experiment [2] greater than 2 fold.

Values taken from patent US20030158389A1.
